Laboratory results reported in patent EP4428150A1 (Peptide Logic LLC, dated 2024).
Changes are numbered by the printed parent chain. Numbers in names are those of the source.

Legend:
human prolactin [1] = target: T1, human prolactin (human, UniProt P01236 29-227); assay: bio-layer interferometry (Octet-RED96), antibody captured on anti-human IgG Fc sensors, 1:1 global fit
T1 construct: also called hPRL; Human PRL
T1 sequence (looked up): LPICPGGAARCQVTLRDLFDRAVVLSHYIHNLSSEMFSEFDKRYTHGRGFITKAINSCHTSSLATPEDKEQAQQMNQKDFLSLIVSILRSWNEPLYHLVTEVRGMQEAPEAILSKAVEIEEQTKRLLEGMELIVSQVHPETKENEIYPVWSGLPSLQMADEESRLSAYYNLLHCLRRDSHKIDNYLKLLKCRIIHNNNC

cynomolgus monkey PRL [2] = target: T2, cynomolgus monkey PRL (cynomolgus monkey, UniProt A0A2K5X975 30-228); assay: bio-layer interferometry (Octet-RED96), antibody captured on anti-human IgG Fc sensors, 1:1 fit
T2 construct: also called Cynomolgus PRL; cynomolgus PRL
T2 sequence: T1 sequence (looked up) with A9V, R43Q, K53R, A64P, Q106E, S151T

human placental lactogen = human placental lactogen (human, UniProt P0DML2 27-217); assay: cell-based or functional assay
Sequence of human placental lactogen (P0DML2 27-217 limits assumed): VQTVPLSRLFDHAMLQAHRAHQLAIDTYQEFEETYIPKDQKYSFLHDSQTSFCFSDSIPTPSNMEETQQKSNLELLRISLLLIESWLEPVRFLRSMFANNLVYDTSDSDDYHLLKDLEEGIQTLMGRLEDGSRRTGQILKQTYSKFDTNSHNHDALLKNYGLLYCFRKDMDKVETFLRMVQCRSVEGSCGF

cynomolgus monkey PRL [3] = target: T2, cynomolgus monkey PRL; assay: cell-based or functional assay
human growth hormone = human growth hormone (human, UniProt P01241 27-217); assay: cell-based or functional assay
Sequence of human growth hormone (P01241 27-217 limits assumed): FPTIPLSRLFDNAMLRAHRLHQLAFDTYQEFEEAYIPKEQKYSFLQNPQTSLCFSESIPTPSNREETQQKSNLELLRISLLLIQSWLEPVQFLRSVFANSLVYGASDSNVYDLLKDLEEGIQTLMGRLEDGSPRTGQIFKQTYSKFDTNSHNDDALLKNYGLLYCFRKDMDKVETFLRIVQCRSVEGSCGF

mouse PRL [4] = target: T3, mouse PRL (mouse, UniProt P06879 30-226); assay: cell-based or functional assay
T3 sequence (looked up): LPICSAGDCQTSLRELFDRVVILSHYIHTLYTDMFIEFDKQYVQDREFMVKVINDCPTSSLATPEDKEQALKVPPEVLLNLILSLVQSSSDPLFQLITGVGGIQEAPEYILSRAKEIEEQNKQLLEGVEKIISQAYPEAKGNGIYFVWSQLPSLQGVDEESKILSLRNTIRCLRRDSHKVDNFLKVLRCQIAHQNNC

human prolactin [5] = target: T1, human prolactin; assay: cell-based or functional assay
mouse PRL [6] = target: T3, mouse PRL; assay: bio-layer interferometry (Octet-RED96), antibody captured on anti-human IgG Fc sensors; kinetics not determined

- Kd (human prolactin [1]): 0.621 nM
- koff (human prolactin [1]): 0.000215 s⁻¹
- kon (human prolactin [1]): 347000 M⁻¹ s⁻¹
- Kd (cynomolgus monkey PRL [2]): 0.565 nM
- koff (cynomolgus monkey PRL [2]): 0.000307 s⁻¹
- kon (cynomolgus monkey PRL [2]): 543000 M⁻¹ s⁻¹
- IC50 in the in vitro CHO-hPRLR phospho-STAT5 cell signaling assay (human placental lactogen): > 3620 nM
- IC50 in the in vitro CHO-hPRLR phospho-STAT5 cell signaling assay (cynomolgus monkey PRL [3]): 4.7 nM
- IC50 in the in vitro CHO-hPRLR phospho-STAT5 cell signaling assay (human growth hormone): > 150 nM
- IC50 in the in vitro CHO-hPRLR phospho-STAT5 cell signaling assay (mouse PRL [4]): > 150 nM
- IC50 in the in vitro CHO-hPRLR phospho-STAT5 cell signaling assay (human prolactin [5]): 3.1 nM
- Kd (mouse PRL [6]): > 100 nM
B1: Antibody 37 (antibody, human IgG4 S228P, kappa, V domains shown)
VH: QVQLVQSGAEVKKPGASVKVSCKASGYTFSNFWIEWVRQAPGQRLEWMGEIFPGTGSTYYTEKFKVRVTITRDTSASTAYMELSSLRSEDTAVYYCARRGYSDSWFAHWGQGTLVTVSS
VL: DIQMTQSPSSLSASVGDRVTITCRASESVDMYGKSFMHWYQQKPGKAPKLLIYRASTLESGVPSRFSGSGSGTDFTLTISSLQPEDFATYYCQQNVEAPLTFGGGTKVEIKR
notes: Humanized IgG4(S228P), IGHV1-3 heavy and IGKV1-39 light frameworks; also called humanized anti-hPRL antibody
